Sequences and labels used below:
B1: HCoV-229E RBD (294–435 aa) (domain or fragment)
chain: PVYHKHTFIVLYVDFKPQSGGGKCFNCYPAGVNITLANFNETKGPLCVDTSHFTTKYVAVYANVGRWSASINTGNCPFSFGKVNNFVKFGSVCFSLKDIPGGCAMPIVANWAYSKYYTIGSLYVSWSDGDGITGVPQPVEGV
B2: HCoV-229E S ectodomain (17–1115 aa), 229E S trimer (domain or fragment)
chain: QTTNGLNTSYSVCNGCVGYSENVFAVESGGYIPSDFAFNNWFLLTNTSSVVDGVVRSFQPLLLNCLWSVSGLRFTTGFVYFNGTGRGDCKGFSSDVLSDVIRYNLNFEENLRRGTILFKTSYGVVVFYCTNNTLVSGDAHIPFGTVLGNFYCFVNTTIGNETTSAFVGALPKTVREFVISRTGHFYINGYRYFTLGNVEAVNFNVTTAETTDFCTVALASYADVLVNVSQTSIANIIYCNSVINRLRCDQLSFDVPDGFYSTSPIQSVELPVSIVSLPVYHKHTFIVLYVDFKPQSGGGKCFNCYPAGVNITLANFNETKGPLCVDTSHFTTKYVAVYANVGRWSASINTGNCPFSFGKVNNFVKFGSVCFSLKDIPGGCAMPIVANWAYSKYYTIGSLYVSWSDGDGITGVPQPVEGVSSFMNVTLDKCTKYNIYDVSGVGVIRVSNDTFLNGITYTSTSGNLLGFKDVTKGTIYSITPCNPPDQLVVYQQAVVGAMLSENFTSYGFSNVVELPKFFYASNGTYNCTDAVLTYSSFGVCADGSIIAVQPRNVSYDSVSAIVTANLSIPSNWTTSVQVEYLQITSTPIVVDCSTYVCNGNVRCVELLKQYTSACKTIEDALRNSARLESADVSEMLTFDKKAFTLANVSSFGDYNLSSVIPSLPTSGSRVAGRSAIEDILFSKLVTSGLGTVDADYKKCTKGLSIADLACAQYYNGIMVLPGVADAERMAMYTGSLIGGIALGGLTSAVSIPFSLAIQARLNYVALQTDVLQENQKILAASFNKAMTNIVDAFTGVNDAITQTSQALQTVATALNKIQDVVNQQGNSLNHLTSQLRQNFQAISSSIQAIYDRLDTIQADQQVDRLITGRLAALNVFVSHTLTKYTEVRASRQLAQQKVNECVKSQSKRYGFCGNGTHIFSIVNAAPEGLVFLHTVLLPTQYKDVEAWSGLCVDGTNGYVLRQPNLALYKEGNYYRITSRIMFEPRIPTMADFVQIENCNVTFVNISRSELQTIVPEYIDVNKTLQELSYKLPNYTVPDLVVEQYNQTILNLTSEISTLENKSAELNYTVQKLQTLIDNINSTLVDLKWLNRVETYIKWP
B3: Fab S11 (Fab, V domains shown)
VH: EVQLVESGGGLVQPGGSLRLSCAASGFNISSSYIHWVRQAPGKGLEWVASIYSSYGYTYYADSVKGRFTISADTSKNTAYLQMNSLRAEDTAVYYCARWWITFGGAGGGLDYWGQGTLVTVSS
VL: DIQMTQSPSSLSASVGDRVTITCRASQSVSSAVAWYQQKPGKAPKLLIYSASSLYSGVPSRFSGSRSGTDFTLTISSLQPEDFATYYCQQGYAWRNTFGQGTKVEIK

Like-named read-outs stand apart in the source and are kept apart here.

What all share (experiment): SPR
Test [1] concerns the target S08.
The target of test [2] is R07.
For test [3], the target named is R17.
Test [4] addresses S02.
In test [5] the target is R14.
Test [6] addresses S15.
The target of test [7] is S10.
Test [8] addresses R10.
The target in test [9] is S08. The source holds these as a separate data set.
For test [10], the target named is R07. This is another data set of the same source.
The target of test [11] is R17. This is another data set of the same source.
The target of test [12] is S02. This is another data set of the same source.
Test [13] deals with R14. The source holds these as a separate data set.
The target of test [14] is S15. This is another data set of the same source.
The target of test [15] is S10. The source holds these as a separate data set.
Test [16] deals with R10. The source holds these as a separate data set.
Test [17] concerns the target S08. This is another data set of the same source.
Test [18] has as its target R07. This is another data set of the same source.
The target in test [19] is R17. This is another data set of the same source.
The target of test [20] is S02. This is another data set of the same source.
Test [21] has as its target R14. This is another data set of the same source.
The target of test [22] is S15. The source holds these as a separate data set.
The target in test [23] is S10. The source holds these as a separate data set.
The target of test [24] is R10. This is another data set of the same source.
For test [25], the target named is B1.
Test [26] deals with B2.
The target of test [27] is B1.
The target of test [28] is B2.
For test [29], the target named is B1.
Test [30] has as its target B2.

B1: the Kd with S08 [1] was determined as 3 nM; in the test with R07 [2] it was 2 nM; with R17 [3], 0.9 nM; with S02 [4], 0.5 nM; with R14 [5], 0.8 nM; with S15 [6], 0.3 nM. The Kd in the test with S10 [7] came out at 0.5 nM; with R10 [8], 0.3 nM; with S08 [9], 2.9 nM; in the test with R17 [11], 0.92 nM; in the test with S02 [12], 0.49 nM; with R14 [13], 0.81 nM. The Kd with S15 [14] is 0.26 nM; in the test with S10 [15], 0.51 nM; with R10 [16], 0.32 nM. For the same molecule, the koff was 0.0053 s⁻¹ in the test with S08 [9]; 0.0016 s⁻¹ in the test with R07 [10]; 0.0025 s⁻¹ in the test with R17 [11]; 0.0018 s⁻¹ with S02 [12]; 0.003 s⁻¹ in the test with R14 [13]; 0.00097 s⁻¹ in the test with S15 [14]. For the same molecule, the off-rate (koff) with S10 [15] is 0.0031 s⁻¹; in the test with R10 [16], 0.0019 s⁻¹.

With B2, the koff came to 0.0054 s⁻¹ with S08 [17]; 0.0011 s⁻¹ in the test with R07 [18]; 0.0024 s⁻¹ with R17 [19]; 0.0035 s⁻¹ with S02 [20]; 0.0039 s⁻¹ with R14 [21]; 0.00098 s⁻¹ with S15 [22]. For the same molecule, the koff with S10 [23] was 0.0018 s⁻¹; in the test with R10 [24], 0.0012 s⁻¹. In addition, the Kd was 0.75 nM in the test with S02 [20]; 0.44 nM with S15 [22]; 0.28 nM with S10 [23]; 0.43 nM in the test with R10 [24]; 2.4 nM with S08 [1]; 2 nM with R07 [2]. The Kd was determined as 2.4 nM with R17 [3]; 0.8 nM with S02 [4]; 2.7 nM in the test with R14 [5]; 0.4 nM with S15 [6]; 0.3 nM in the test with S10 [7]; 0.4 nM with R10 [8].

B3: the Kd came to 0.2 nM in test [25], 0.4 nM in test [26], 0.21 nM in test [29] and 0.38 nM in test [30]. In addition, the results for the koff in test [27] and in [28] were 0.00081 s⁻¹ and 0.00054 s⁻¹, respectively.

By Kd is commonly meant a measure of binding affinity in units of concentration. In general, koff refers to a measure of how fast the partners let go of each other. A higher koff goes with fast dissociation.

Source of the values: paper PMC9636267 (2022).
